Assay results: patent US20260234269A1

Assays:
[1] = target: mouse Gal3 on mouse cells (B16F10 tumor cells, RAW264.7 macrophages) (mouse) (UniProt P16110); assay: flow cytometry, B16F10 cells
[2] = target: human Gal9 protein (R&D systems) (human) (UniProt O00182); assay: ELISA, hGal9 coated, mTIM-3 Fc with or without 25 mM lactose
Chain of human Gal9 protein (R&D systems) (human) (O00182 other isoform, or with tags, fused parts or gaps limits assumed): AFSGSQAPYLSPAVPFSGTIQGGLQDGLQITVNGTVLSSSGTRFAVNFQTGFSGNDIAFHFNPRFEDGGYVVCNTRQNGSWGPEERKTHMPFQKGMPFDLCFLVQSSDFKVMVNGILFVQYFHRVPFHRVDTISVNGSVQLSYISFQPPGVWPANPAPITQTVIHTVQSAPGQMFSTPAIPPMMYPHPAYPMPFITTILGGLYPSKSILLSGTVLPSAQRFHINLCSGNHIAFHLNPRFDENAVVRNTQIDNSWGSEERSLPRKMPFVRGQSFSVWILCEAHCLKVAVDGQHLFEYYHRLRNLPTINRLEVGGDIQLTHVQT

Chain of mouse Gal3 on mouse cells (B16F10 tumor cells, RAW264.7 macrophages) (mouse) (P16110 2-264): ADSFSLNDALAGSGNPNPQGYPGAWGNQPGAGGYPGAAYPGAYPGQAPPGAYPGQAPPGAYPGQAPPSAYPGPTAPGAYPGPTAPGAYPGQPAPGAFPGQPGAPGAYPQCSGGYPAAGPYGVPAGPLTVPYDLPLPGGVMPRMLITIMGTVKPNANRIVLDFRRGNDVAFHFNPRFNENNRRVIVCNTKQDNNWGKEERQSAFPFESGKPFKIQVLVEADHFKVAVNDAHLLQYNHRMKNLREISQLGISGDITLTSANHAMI

Row | MFI, fold over isotype control antibody [1] | fold reduction in signal with 25 mM lactose [2] | Substance
1 | 10 fold |  | rat anti mouse Gal3 PE antibody (Thermo Fisher Scientific)
2 |  | > 10 fold | mouse TIM-3 Fc protein (R&D systems) (from UniProt Q8VIM0 20-191) (Fc fusion)
